Results on 1 substance are retold here after article PMC12700558, “Aggregation shifts amyloid-β peptides from synaptogenic to synaptotoxic” (The Journal of Clinical Investigation, 2025).

Entries after “also recorded” stand apart in the source; their conditions may differ.

Series [1] can be described thus: Native PAGE and immunoblotting of the aggregation state of Aβ peptides. In kind it is physicochemical. The note with it: stock solutions incubated at 37°C for 60 or 90 minutes, native PAGE, immunoblot 4G8 / Abcam 126892. On the procedure: To assess the aggregation state of Aβ peptides in stock solutions, we performed native polyacrylamide gel electrophoresis (PAGE) followed by immunoblotting. Stock solutions of Aβ peptides were incubated at 37°C for 1.5 and/or 1 hours to promote aggregate formation. After incubation, samples were diluted 1:2 with native PAGE sample buffer to maintain nondenaturing conditions. The samples were loaded onto 4%–15% gradient polyacrylamide Criterion gels (Bio-Rad), which allow for the separation of proteins across a wide range of molecular weights under native conditions. Electrophoresis was conducted using Tris-Glycine buffer at 4°C for 3 hours to preserve the native structure of the peptide aggregates during separation. A constant voltage appropriate for native PAGE was applied throughout the run ([49]). Following electrophoresis, proteins were transferred onto Nitrocellulose (0.45 μm) membranes using a semidry transfer apparatus optimized for proteins of mixed molecular weights. The transfer was performed according to the manufacturer’s instructions, ensuring efficient transfer of both low and high molecular weight species. Membranes were blocked with 5% BSA (GeminiBio) in Tris-buffered saline with 0.1% Tween-20 (TBST) at room temperature for 1 hour to prevent nonspecific antibody binding. […] Blots were imaged using the Odyssey Infrared Imager CLX and analyzed using Image Study 5.2.5. […]

Series [2] concerns human neurons cocultured with mouse glia (entire glia/neuron coculture). On the procedure:
The MTT assay employs yellow tetrazolium dye that is reduced to a purple formazan crystal by viable cells with active metabolism ([21]). Because it measures metabolic activity in all cells, this assay serves as a broad cytotoxicity read out for the entire glia/neuron coculture system. The amount of formazan produced is then measured because it is directly proportional to the number of viable cells ([21]) (Figure 1B and Supplemental Figure 1A). The nuclear localization TdTomato assay, conversely, enables monitoring of cellular stress by tracking the localization of fluorescent TdTomato fused to a nuclear localization signal. Under healthy conditions, the nuclear localization signal directs the NLS-TdTomato to the nucleus. When toxicity in a cell causes a reduction in ATP levels, NLS-TdTomato leaks out of the nucleus into the cytoplasm, which we scored as an index of toxicity (Figure 1, C and D, and Supplemental Figure 1, B–D). Because the reporter is expressed only in neurons, this assay specifically assesses neurotoxicity within the coculture. We developed this assay because it can be performed on live cells and reflects decreases in ATP levels in these cells. The NLS-TdTomato assay was validated by treating cultures with 5% DMSO and 200 μM hydrogen peroxide, 2 well-established neurotoxins. […]

As for “-.DAEFRHDSGYEVHHQKLVFFAGDVGSNKGAIIGLMVGGVVI.A [Aβ42^arctic]”, in series [1], the “Aggregation state in native gel analyses (in words)” value is “completely aggregated even at lower concentrations; also recorded: quantitatively aggregated”. For the same substance, in series [2], the “Concentration at which neurotoxic, MTT assay” value was “greater than or equal to 0.025 μM”.
